Results: PMC4457860, “In Vitro Interaction of the Housekeeping SecA1 with the Accessory SecA2 Protein of Mycobacterium tuberculosis” (PLoS ONE, 2015)

Tests used:
[1] = target: Escherichia coli SecA labeled with Cy5 (E. coli) (UniProt P10408); assay: MST; Monolith NT.115; unlabeled protein (1 nM to 5 μM) titrated into 25 nM Cy5-labeled protein, mixed in 300 mM KCl, then diluted into low salt buffer (25 mM HEPES-KOH pH 7.5, 30 mM KCl, 2 mM MgCl2, 50 mM arginine); Hill fit, apparent Kd; dimer to monomers
[2] = target: Mycobacterium tuberculosis SecA1 (unlabeled) (Mycobacterium tuberculosis strain H37Rv) (UniProt P9WGP5); assay: SEC; Superdex 200 10/300 GL, 0.5 ml/min, 20 mM HEPES-KOH pH 7.5, 2 mM MgCl2, 50 mM arginine, low salt (30 mM KCl); protein 2-5 mg/ml; mass estimated with protein standards
[3] = target: the molecule itself; assay: as above

Work on “Escherichia coli SecA (unlabeled) (from UniProt P10408 1-901) (natural protein)” yielded a Kd [1] of 31 nM.

In the case of “Mycobacterium tuberculosis SecA1 (unlabeled) (from UniProt P9WGP5 1-949) (natural protein)”, the stoichiometry N [2] is reported as 2.

B1: Mycobacterium tuberculosis SecA2 (unlabeled) (natural protein)
chain: MVPKTTRAQPGRLSSRFWRLLGASTEKNRSRSLADVTASAEYDKEAADLSDEKLRKAAGLLNLDDLAESADIPQFLAIAREAAERRTGLRPFDVQLLGALRMLAGDVIEMATGEGKTLAGAIAAAGYALAGRHVHVVTINDYLARRDAEWMGPLLDAMGLTVGWITADSTPDERRTAYDRDVTYASVNEIGFDVLRDQLVTDVNDLVSPNPDVALIDEADSVLVDEALVPLVLAGTTHRETPRLEIIRLVAELVGDKDADEYFATDSDNRNVHLTEHGARKVEKALGGIDLYSEEHVGTTLTEVNVALHAHVLLQRDVHYIVRDDAVHLINASRGRIAQLQRWPDGLQAAVEAKEGIETTETGEVLDTITVQALINRYATVCGMTGTALAAGEQLRQFYQLGVSPIPPNKPNIREDEADRVYITTAAKNDGIVEHITEVHQRGQPVLVGTRDVAESEELHERLVRRGVPAVVLNAKNDAEEARVIAEAGKYGAVTVSTQMAGRGTDIRLGGSDEADHDRVAELGGLHVVGTGRHHTERLDNQLRGRAGRQGDPGSSVFFSSWEDDVVAANLDHNKLPMATDENGRIVSPRTGSLLDHAQRVAEGRLLDVHANTWRYNQLIAQQRAIIVERRNTLLRTVTAREELAELAPKRYEELSDKVSEERLETICRQIMLYHLDRGWADHLAYLADIRESIHLRALGRQNPLDEFHRMAVDAFASLAADAIEAAQQTFETANVLDHEPGLDLSKLARPTSTWTYMVNDNPLSDDTLSALSLPGVFR
notes: No tag; molecular mass 85 kDa on SDS-PAGE; also called PIP152
For B1, the “stoichiometry N” value [3] was 2.
